How the values were obtained:
[1] = biological target: Maltose binding protein (MBP) (UniProt P0AEX9 27-396); experiment: size-exclusion chromatography
MBP-IE86 full length = biological target: T1, MBP-IE86 full length (human cytomegalovirus, UniProt P19893 1-580); experiment: size-exclusion chromatography
T1 sequence: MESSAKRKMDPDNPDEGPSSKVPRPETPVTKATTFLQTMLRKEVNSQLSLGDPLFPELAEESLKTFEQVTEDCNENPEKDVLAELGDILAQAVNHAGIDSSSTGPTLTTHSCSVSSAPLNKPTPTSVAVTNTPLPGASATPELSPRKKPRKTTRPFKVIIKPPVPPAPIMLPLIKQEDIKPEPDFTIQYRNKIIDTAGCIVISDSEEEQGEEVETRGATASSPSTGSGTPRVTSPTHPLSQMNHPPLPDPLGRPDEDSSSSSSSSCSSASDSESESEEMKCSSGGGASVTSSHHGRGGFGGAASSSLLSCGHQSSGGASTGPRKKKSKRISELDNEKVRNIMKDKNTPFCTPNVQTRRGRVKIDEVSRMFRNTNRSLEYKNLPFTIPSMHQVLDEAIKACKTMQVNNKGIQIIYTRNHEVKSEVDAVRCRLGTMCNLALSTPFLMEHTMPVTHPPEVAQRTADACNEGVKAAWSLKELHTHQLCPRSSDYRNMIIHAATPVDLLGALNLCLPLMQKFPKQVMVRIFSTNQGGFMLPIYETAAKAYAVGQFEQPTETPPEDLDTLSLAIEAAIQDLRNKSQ

B1: FDC (28bp, phosphorothioate) (dsDNA)
DNA 1: GACAGATCGTTTAGTGAACCGTACACGA
DNA 2: TCGTGTACGGTTCACTAAACGATCTGTC
modifications: four phosphorothioate bonds per strand (* in table)
Which results are given for B1?
binding result [1]: no binding; binding result (MBP-IE86 full length): binds

Source: paper doi:10.1101/464495
